Measured values from article PMC5601406 (2017).

Biological target: SN (Staphylococcus nuclease scaffold protein) (Staphylococcus aureus, UniProt Q5HHM4)
Assay: ELISA

B1: SmpB (protein)
chain: MSKKNSKNKAGSNTIALNRSARHEYFIEEKIEAGLSLQGWEVKSLRAGKANISEAYVIFRDGEAYLFGSSFLPLQAASSHVVCDPTRTRKLLLSRRELDKLESLIARQGYTVVPLALYWKQCWVKVEIGLVKGKKEHDKREDTKAREWDREKARIMKNKHRG
Kd: 1380 nM
